Test results reported in patent US20080026982A1.

Legend:
Assay in all cases: cell-based or functional assay
[1] = molecular target: APOBEC3G mutant D128K, C-terminal myc-tagged (human)
[2] = molecular target: APOBEC3G mutant P129A, C-terminal myc-tagged (human) (UniProt Q9HC16)
[3] = molecular target: APOBEC3G mutant P129D, C-terminal myc-tagged, expressed from pAPO3G-P129D (human) (UniProt Q9HC16)
[4] = molecular target: APOBEC3G mutant P129F, C-terminal myc-tagged (human) (UniProt Q9HC16)

| Substance | Inhibition HIV-2 (%) (viral inhibition, HDV-EGFP single-cycle infectivity in the presence of Vif) [1] | Inhibition HIV-2 (%) (viral inhibition, HDV-EGFP single-cycle infectivity in the presence of Vif) [2] | GFP-positive cells (relative to wild type APOBEC3G with pcHelp set to 100%) [3] [%] | Inhibition HIV-2 (%) (viral inhibition, HDV-EGFP single-cycle infectivity in the presence of Vif) [3] | Inhibition HIV-2 (%) (viral inhibition, HDV-EGFP single-cycle infectivity in the presence of Vif) [4] | Inhibition HIV-1 (%) (viral inhibition, HDV-EGFP single-cycle infectivity in the presence of Vif) [1] | Inhibition HIV-1 (%) (viral inhibition, HDV-EGFP single-cycle infectivity in the presence of Vif) [2] | Inhibition HIV-1 (%) (viral inhibition, HDV-EGFP single-cycle infectivity in the presence of Vif) [3] | Inhibition HIV-1 (%) (viral inhibition, HDV-EGFP single-cycle infectivity in the presence of Vif) [4] |
| --- | --- | --- | --- | --- | --- | --- | --- | --- | --- |
| HIV-2 Vif (HIV-2Rod) | 42 | 77 | < 10 | 95 | 81 | – | – | – | – |
| HIV-1 Vif (virion infectivity factor), expressed from pC-Help | – | – | < 10 | – | – | 83 | 68 | 94 | 79 |
